Data reported in PMC3518760 (Nature, 2012).

Legend:
[1] = molecular target: mouse protocadherin-15 EC1+2 R113G (mouse) (UniProt Q99PJ1); test: ITC
[2] = molecular target: mouse protocadherin-15 EC1+2 I22A (mouse, UniProt Q99PJ1-18 27-259, I22A); test: ITC
[3] = molecular target: T1, mouse protocadherin-15 EC1+2 (mouse, UniProt Q99PJ1-18 27-259); test: ITC
[4] = molecular target: T1, mouse protocadherin-15 EC1+2; test: crystal structure

In the case of “mouse cadherin-23 EC1+2 (from UniProt Q99PF4 24-228) (domain or fragment)”, the Kd [1] is reported as > 20 µM.

B1: mouse cadherin-23 EC1+2 (domain or fragment)
chain: MQVNRLPFFTNHFFDTYLLISEDTPVGSSVTQLLARDMDNDPLVFGVSGEEASRFFAVEPDTGVVWLRQPLDRETKSEFTVEFSVSDHQGVITRKVNIQVGDVNDNAPTFHNQPYSVRIPENTPVGTPIFIVNATDPDLGAGGSVLYSFQPPSPFFAIDSARGIVTVIQELDYEVTQAYQLTVNATDQDKTRPLSTLANLAIIITD
B1 was tested, and the Kd [2] was > 100 µM, the Kd [3] was 2.9 µM and the dH [3] was 7.08 kcal/mol. The “stoichiometry N” value [3] was 0.88.

B2: mouse cadherin-23 EC1+2 L145G (domain or fragment)
chain: MQVNRLPFFTNHFFDTYLLISEDTPVGSSVTQLLARDMDNDPLVFGVSGEEASRFFAVEPDTGVVWLRQPLDRETKSEFTVEFSVSDHQGVITRKVNIQVGDVNDNAPTFHNQPYSVRIPENTPVGTPIFIVNATDPDLGAGGSVGYSFQPPSPFFAIDSARGIVTVIQELDYEVTQAYQLTVNATDQDKTRPLSTLANLAIIITD
With B2 the Kd [3] was > 30 µM.

B3: mouse cadherin-23 EC1+2 S47P (domain or fragment)
chain: MQVNRLPFFTNHFFDTYLLISEDTPVGSSVTQLLARDMDNDPLVFGVPGEEASRFFAVEPDTGVVWLRQPLDRETKSEFTVEFSVSDHQGVITRKVNIQVGDVNDNAPTFHNQPYSVRIPENTPVGTPIFIVNATDPDLGAGGSVLYSFQPPSPFFAIDSARGIVTVIQELDYEVTQAYQLTVNATDQDKTRPLSTLANLAIIITD
B3: binds [4].
